Measured values: patent US20250108100A1, “C-TERMINAL FRAGMENT OF APOLIPOPROTEIN E AND APPLICATION THEREOF IN INHIBITING y-SECRETASE ACTIVITY” (SYNPHATEC (SHANGHAI) BIOPHARMACEUTICAL TECHNOLOGY CO., LTD., priority 2022, published 2025)

These molecules were tested on human APP and β-secretase co-expressed in HEK 293T cells (assay: HEK 293T cells co-expressing APP and β-secretase (BACE1): Aβ ELISA and β-CTF Western blot). Conditions: APP and β-secretase co-expressed, ELISA, vs GFP control.
Type: cell-based
Method: The experiment was performed according to the standard procedure in the ELISA analysis kit of Invitrogen Company. • a) The target protein was expressed in HEK 293T cell line. Cells were subcultured one day before transfection, and transfection was performed when the degree of cell adhesion reached 70%-80%. The transfection reagent was lipofectamine2000 (ThermoFisher). • b) 4-6 hours post transfection, medium were replaced with fresh cell culture medium. • c) 36-48 hours post transfection, the cell culture medium was collected, and then the ELISA process was performed or the cell culture medium was frozen in a −80° C. refrigerator. • d) 50 μl of standard samples and experimental samples were added to each well of the 96-well plate. • e) 50 μl of human-derived Aβ40 or Aβ42 or mouse-derived Aβ40 detection antibody was added to each well of the 96-well plate. • f) The above samples were shaken gently and placed at room temperature for 3 hours. • g) The liquid in the well were removed, and the plate was washed 4 times with 1× wash buffer. • h) 100 μl of the buffer containing 1× anti-Rabbit IgG HRP was added. • i) The plate was shaken gently and placed at room temperature for […]. • j) The liquid in the well were removed, and the well was washed 4 times with 1× wash buffer. • k) 100 μl of Stabilized Chromogen was added to each well, and the plate was placed in the dark for 30 minutes at room temperature. • l) 100 μl of Stop Solution was added to each well. • m) The absorbance at 450 nm was measured with a microplate reader. 2.4 qRT-PCR
48 hours after transfection of HEK 293T cells and N2A cells, or 4.5 days after lentivirus infection of neurons, media and lysates were collected. Aβ40 and Aβ42 in the culture medium and cell lysates were detected by an Aβ ELISA kit as indicated in the protocol. (Invitrogen Technology; KHB3481 for human Aβ40, KHB3441 for human Aβ42 and KMB3481 for mouse Aβ40).
Data were analyzed by GraphPad Prism software (v6) using unpaired, paired, or one-sample t-tests. Aβ40 and Aβ42 levels were normalized to the corresponding GFP controls. α-CTF levels were normalized to FL-APP and corresponding GFP controls. All data are represented as mean±SEM. Statistical significance was defined as p<0.05. One, two, three and four stars (*) in the graph indicate p-values <0.05, <0.01, <0.001 and <0.0001, respectively.

Row | Molecule | production of Aβ40
1 | CT ND3CD10: SEQ ID NO: 25; ApoE CT minus 3 N-terminal and 10 C-terminal residues (protein) EEMGSRTRDRLDEVKEQVAEVRAKLEEQAQQIRLQAEAFQARLKSWFEPLVEDMQRQWAGLVEKVQAAVGT | can still significantly reduce Aβ40
2 | CT ND3CD20: SEQ ID NO: 31; ApoE CT minus 3 N-terminal and 20 C-terminal residues (protein) EEMGSRTRDRLDEVKEQVAEVRAKLEEQAQQIRLQAEAFQARLKSWFEPLVEDMQRQWAGL | can still significantly reduce Aβ40
3 | CT ND3CD11: SEQ ID NO: 26; ApoE CT minus 3 N-terminal and 11 C-terminal residues (protein) EEMGSRTRDRLDEVKEQVAEVRAKLEEQAQQIRLQAEAFQARLKSWFEPLVEDMQRQWAGLVEKVQAAVG | can still significantly reduce Aβ40
4 | CT ND3CD12: SEQ ID NO: 27; ApoE CT minus 3 N-terminal and 12 C-terminal residues (protein) EEMGSRTRDRLDEVKEQVAEVRAKLEEQAQQIRLQAEAFQARLKSWFEPLVEDMQRQWAGLVEKVQAAV | can still significantly reduce Aβ40
5 | CT ND3CD13: SEQ ID NO: 28; ApoE CT minus 3 N-terminal and 13 C-terminal residues (protein) EEMGSRTRDRLDEVKEQVAEVRAKLEEQAQQIRLQAEAFQARLKSWFEPLVEDMQRQWAGLVEKVQAA | can still significantly reduce Aβ40
6 | CT ND3CD15: SEQ ID NO: 30; ApoE CT minus 3 N-terminal and 15 C-terminal residues (protein) EEMGSRTRDRLDEVKEQVAEVRAKLEEQAQQIRLQAEAFQARLKSWFEPLVEDMQRQWAGLVEKVQ | can still significantly reduce Aβ40
7 | CT ND3: SEQ ID NO: 20; ApoE CT with 3 N-terminal amino acids deleted (protein) EEMGSRTRDRLDEVKEQVAEVRAKLEEQAQQIRLQAEAFQARLKSWFEPLVEDMQRQWAGLVEKVQAAVGTSAAPVPSDNH | can still reduce Aβ40
8 | CT ND3CD14: SEQ ID NO: 29; ApoE CT minus 3 N-terminal and 14 C-terminal residues (protein) EEMGSRTRDRLDEVKEQVAEVRAKLEEQAQQIRLQAEAFQARLKSWFEPLVEDMQRQWAGLVEKVQA | can still significantly reduce Aβ40
9 | CT ND4: SEQ ID NO: 21; ApoE CT with 4 N-terminal amino acids deleted (protein) EMGSRTRDRLDEVKEQVAEVRAKLEEQAQQIRLQAEAFQARLKSWFEPLVEDMQRQWAGLVEKVQAAVGTSAAPVPSDNH | can still reduce Aβ40
